± gives the standard deviation of the averaged measurements.
What was measured:
[1] = test system: Saccharomyces cerevisiae; assay: protein stability index of tFT-peptide fusion (C-terminal peptide) (PSI (0-1 scale)); higher = more stable (slower turnover)
Protocol: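 MPS profiling in S. cerevisiae of the tFT-X12 degron library: putative degron peptides plus stable controls, 12 aa, fused to the C-terminus of a sfGFP-mCherry timer. Cells are FACS-sorted into 8 mCherry/sfGFP bins and deep-sequenced. PSI runs from 0 (unstable) to 1 (stable). Backgrounds are wild type, das1Δ and doa10Δ at 30 °C, and wild type, das1Δ, cdc34-1 and cdc53-1 at 37 °C; 2-3 technical replicates each.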

[2] = test system: Saccharomyces cerevisiae; assay: as above; conditions: genetic background: wild type; temperature: 30 C
[3] = genetic background: cdc34-1, temperature: 37 C
[4] = genetic background: cdc53-1, temperature: 37 C
[5] = genetic background: das1 deletion, temperature: 30 C
[6] = genetic background: das1 deletion, temperature: 37 C
[7] = genetic background: doa10 deletion, temperature: 30 C
[8] = genetic background: wild type, temperature: 30 C
[9] = genetic background: wild type, temperature: 37 C
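Further: PSI is a weighted mean of sequencing reads over stability bins, variants kept only with over 10 reads, mCherry proximal and sfGFP distal, peptide attached via GGGS linker.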

Sequence	protein stability index [1, 3]	protein stability index [1, 4]	protein stability index [1, 5]	protein stability index [1, 6]	protein stability index [1, 7]	protein stability index [1, 8]	protein stability index [1, 9]	protein stability index [2]
SVHKYGFIKEIN	0.732 ± 0.026	0.70852 ± 0.00021	0.668 ± 0.061	0.761 ± 0.023	0.473 ± 0.035	0.474 ± 0.046	0.667 ± 0.016	0.531 ± 0.047
SVVLCRFVLRIF	0.0423 ± 0.011	0.109 ± 0.055	0.136 ± 0.015	0.181 ± 0.039	0.0747 ± 0.0075	0.0735 ± 0.017	0.136 ± 0.038	0.128 ± 0.018
SVVWIRFVGVRV	0.472 ± 0.026	0.507 ± 0.022	0.322 ± 0.024	0.5291 ± 0.0048	0.285 ± 0.0075	0.328 ± 0.016	0.499 ± 0.0089	0.418 ± 0.0043
SWFNLLSILPRD	0.699 ± 0.022	0.7053 ± 0.0039	0.7 ± 0.088	0.784 ± 0.022	0.714 ± 0.029	0.683 ± 0.019	0.736 ± 0.045	0.7305 ± 0.0018
SWIKRYEITCIL	0.543 ± 0.033	0.568 ± 0.026	0.424 ± 0.044	0.5973 ± 0.0036	0.363 ± 0.0093	0.39 ± 0.0099	0.492 ± 0.027	0.478 ± 0.015
SWWISKWVGLNC	0.705 ± 0.0095	0.778 ± 0.01	0.636 ± 0.013	0.7821 ± 0.0033	0.367 ± 0.0053	0.402 ± 0.043	0.6358 ± 0.0049	0.52 ± 0.034
SYMWLVEVLLFI	0.229 ± 0.0074	0.306 ± 0.0063	0.196 ± 0.028	0.386 ± 0.019	0.173 ± 0.012	0.189 ± 0.012	0.33 ± 0.0059	0.264 ± 0.038
SYVFEFIVSVVF	0.208 ± 0.016	0.347 ± 0.011	0.253 ± 0.03	0.373 ± 0.015	0.23 ± 0.0064	0.255 ± 0.014	0.341 ± 0.016	0.315 ± 0.0044
SYVVVFVIFCVG	0.1826 ± 0.00046	0.281 ± 0.028	0.206 ± 0.03	0.3424 ± 0.0014	0.173 ± 0.0049	0.214 ± 0.015	0.301 ± 0.0081	0.224 ± 0.099
TDFICLLWLLHW	0.552 ± 0.035	0.535 ± 0.058	0.422 ± 0.02	0.5698 ± 0.0043	0.3864 ± 0.0017	0.41 ± 0.032	0.535 ± 0.014	0.565 ± 0.12
TFRVRRQKNRNM	0.628 ± 0.021	0.692 ± 0.039	0.631 ± 0.022	0.725 ± 0.013	0.0838 ± 0.015	0.099 ± 0.013	0.217 ± 0.012	0.236 ± 0.012
TLFSFLLVFVFG	0.209 ± 0.0076	0.315 ± 0.0035	0.228 ± 0.035	0.386 ± 0.0047	0.185 ± 0.019	0.206 ± 0.031	0.35 ± 0.0049	0.411 ± 0.017
TLLMVSMTVRPL	0.3005 ± 0.00077	0.379 ± 0.02	0.274 ± 0.022	0.411 ± 0.011	0.26 ± 0.0094	0.272 ± 0.022	0.398 ± 0.036	0.38 ± 0.0051
TPPLPTTPTLNS	0.641 ± 0.022	0.713 ± 0.022	0.718 ± 0.027	0.703 ± 0.021	0.722 ± 0.025	0.71 ± 0.011	0.684 ± 0.021	0.732 ± 0.025
TPRQYVVSLSLC	0.579 ± 0.027	0.657 ± 0.033	0.587 ± 0.039	0.703 ± 0.015	0.131 ± 0.0045	0.123 ± 0.0062	0.227 ± 0.0063	0.19 ± 0.067
TRVVSPNVILMC	0.6679 ± 0.00086	0.7417 ± 0.0073	0.61 ± 0.027	0.725 ± 0.019	0.5135 ± 0.0048	0.526 ± 0.022	0.673 ± 0.009	0.505 ± 0.017
TTSHFCVVLVSV	0.283 ± 0.042	0.307 ± 0.016	0.232 ± 0.039	0.382 ± 0.009	0.182 ± 0.012	0.217 ± 0.032	0.356 ± 0.013	0.32 ± 0.016
TVERKMYWQRWG	0.666 ± 0.029	0.745 ± 0.025	0.641 ± 0.011	0.754 ± 0.01	0.1794 ± 0.00073	0.187 ± 0.0033	0.4975 ± 0.0044	0.391 ± 0.045
TVGVGWVWVGVL	0.5667 ± 0.00058	0.611 ± 0.026	0.446 ± 0.026	0.649 ± 0.015	0.367 ± 0.0044	0.403 ± 0.015	0.576 ± 0.015	0.467 ± 0.015
TVIVCCHLEVVY	0.0776 ± 0.07	0.0367 ± 0.024	0.0294 ± 0.014	0.0693 ± 0.013	0.0254 ± 0.013	0.0249 ± 0.0089	0.0685 ± 0.023	0.0135 ± 0.0057

Sequence	protein stability index [1, 3]	protein stability index [1, 4]	protein stability index [1, 5]	protein stability index [1, 6]	protein stability index [1, 7]	protein stability index [1, 8]	protein stability index [1, 9]	protein stability index [2]
VAALLCWLHLYA	0.602 ± 0.018	0.639 ± 0.02	0.509 ± 0.019	0.622 ± 0.032	0.362 ± 0.007	0.409 ± 0.029	0.563 ± 0.0096	0.498 ± 0.011
VAFVVALSLIFL	0.327 ± 0.019	0.443 ± 0.014	0.306 ± 0.028	0.424 ± 0.0062	0.281 ± 0.019	0.333 ± 0.043	0.43 ± 0.023	0.386 ± 0.0059
VALSILCVFFFF	0.253 ± 0.021	0.357 ± 0.01	0.272 ± 0.035	0.4457 ± 0.0032	0.24 ± 0.025	0.273 ± 0.022	0.383 ± 0.0064	0.309 ± 0.055
VARLGGRIGWEG	0.694 ± 0.022	0.736 ± 0.019	0.634 ± 0.014	0.763 ± 0.015	0.652 ± 0.026	0.646 ± 0.013	0.7208 ± 0.0018	0.548 ± 0.17
VCFCFLRFLSLL	0.543 ± 0.043	0.685 ± 0.014	0.572 ± 0.031	0.716 ± 0.031	0.176 ± 0.0026	0.191 ± 0.0057	0.24 ± 0.019	0.262 ± 0.016
VCFFSSSCFLLV	0.58 ± 0.026	0.607 ± 0.015	0.507 ± 0.021	0.623 ± 0.01	0.463 ± 0.0036	0.45 ± 0.033	0.567 ± 0.0069	0.47 ± 0.035
VCLVFVVRPCIR	0.549 ± 0.021	0.578 ± 0.023	0.436 ± 0.033	0.606 ± 0.022	0.401 ± 0.0078	0.414 ± 0.023	0.599 ± 0.0089	0.4904 ± 0.0027
VCLWAIHLSGCW	0.546 ± 0.046	0.601 ± 0.048	0.46 ± 0.022	0.58776 ± 0.00056	0.453 ± 0.021	0.449 ± 0.03	0.584 ± 0.014	0.475 ± 0.035
VCNYRKLIWKHH	0.52 ± 0.024	0.661 ± 0.047	0.653 ± 0.015	0.746 ± 0.029	0.0622 ± 0.031	0.0668 ± 0.033	0.13 ± 0.012	0.181 ± 0.023
VCVLRWAVAPCR	0.287 ± 0.0041	0.342 ± 0.0038	0.245 ± 0.035	0.429 ± 0.0067	0.207 ± 0.0051	0.235 ± 0.032	0.399 ± 0.013	0.356 ± 0.027
VCWCVVVLEFGL	0.15 ± 0.049	0.367 ± 0.15	0.197 ± 0.031	0.363 ± 0.0062	0.168 ± 0.012	0.185 ± 0.029	0.267 ± 0.044	0.313 ± 0.013
VECPWFCLGVLA	0.336 ± 0.027	0.318 ± 0.018	0.278 ± 0.04	0.4359 ± 0.0013	0.2324 ± 0.001	0.284 ± 0.022	0.416 ± 0.0065	0.3848 ± 0.0018
VERKLMTIYIKI	0.6106 ± 0.0052	0.6479 ± 0.003	0.451 ± 0.018	0.6806 ± 0.0061	0.492 ± 0.015	0.499 ± 0.063	0.6076 ± 0.00061	0.493 ± 0.005
VFAFVVFLHFEC	0.188 ± 0.015	0.296 ± 0.048	0.237 ± 0.036	0.375 ± 0.013	0.184 ± 0.012	0.238 ± 0.029	0.375 ± 0.066	0.31 ± 0.0057
VFFCLFWFFCSF	0.54 ± 0.009	0.571 ± 0.057	0.482 ± 0.031	0.54 ± 0.0084	0.454 ± 0.0066	0.453 ± 0.017	0.492 ± 0.012	0.51 ± 0.12
VFFVTSCWVFRG	0.416 ± 0.018	0.574 ± 0.019	0.432 ± 0.022	0.64 ± 0.022	0.0921 ± 0.02	0.109 ± 0.028	0.208 ± 0.029	0.1794 ± 0.0015
VFGFSLLTLLVL	0.441 ± 0.0078	0.511 ± 0.025	0.386 ± 0.0081	0.5062 ± 0.0021	0.324 ± 0.011	0.347 ± 0.024	0.467 ± 0.019	0.439 ± 0.022
VFRRWGLIGVIV	0.306 ± 0.026	0.326 ± 0.022	0.278 ± 0.041	0.434 ± 0.018	0.181 ± 0.0038	0.226 ± 0.032	0.353 ± 0.0088	0.378 ± 0.0068
VFSGGGFFLKVV	0.67453 ± 9.2e-05	0.765 ± 0.01	0.651 ± 0.024	0.755 ± 0.022	0.19 ± 0.0039	0.215 ± 0.023	0.504 ± 0.02	0.3766 ± 0.0029

From the supplement of paper PMC10724198
